The values below come from patent EP3988566A1.

This experiment concerns the target soluble polymeric amyloid beta (UniProt P05067). Briefly: ELISA, plate coated with amyloid oligomer (55 µg/ml), anti-mouse IgG-AP detection. For orientation: ELISA stands for enzyme-linked immunosorbent assay.

soluble polymeric amyloid beta, sequence (P05067 672-713): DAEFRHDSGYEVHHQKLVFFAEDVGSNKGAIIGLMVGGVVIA

B1: mouse monoclonal antibody ACI-01-Ab7C2 (antibody, mouse IgG2b, V domains shown)
VH: EVQLVESGGGLVQPGGSLKLSCAASGFTFSSYGMSWVRQTPDKRLELVASINSNGGSTYYPDSVKGRFTISRDNAKNTLYLQMSSLKSEDTAMYYCASGDYWGQGSTLTVSS
VL: DVVMTQTPLSLPVSLGDQASISCRSSQSLVYSNGDTYLHWYLQKPGQSPKLLIYKVSNRFSGVPDRFSGSGSGTDFTLKISRVEAEDLGVYFCSQSTHVPWTFGGGTKLEIK
In turn, B1 returned an O.D. at 0.078 ug/ml antibody of 0.652 O.D, an O.D. at 0.156 ug/ml antibody of 1.04 O.D, an O.D. at 0.312 ug/ml antibody of 1.72 O.D and an O.D. at 0.625 ug/ml antibody of 2.81 O.D.
